We go through eight molecules from patent US20240247068A1 (INDUSTRY FOUNDATION OF CHONNAM NATIONAL UNIVERSITY, published 2024).

Experiment [1] addresses T1, calreticulin (CRT) exposed on the cell membrane of drug-treated CT26 and MC38 cells (UniProt P14211 18-416, limits assumed).
T1 construct: whole, on cells; Target is inferred from cells on which calreticulin exposure was induced by anticancer drugs; cells were fixed with 3% paraformaldehyde; also called calreticulin on the cell surface
T1 sequence (looked up): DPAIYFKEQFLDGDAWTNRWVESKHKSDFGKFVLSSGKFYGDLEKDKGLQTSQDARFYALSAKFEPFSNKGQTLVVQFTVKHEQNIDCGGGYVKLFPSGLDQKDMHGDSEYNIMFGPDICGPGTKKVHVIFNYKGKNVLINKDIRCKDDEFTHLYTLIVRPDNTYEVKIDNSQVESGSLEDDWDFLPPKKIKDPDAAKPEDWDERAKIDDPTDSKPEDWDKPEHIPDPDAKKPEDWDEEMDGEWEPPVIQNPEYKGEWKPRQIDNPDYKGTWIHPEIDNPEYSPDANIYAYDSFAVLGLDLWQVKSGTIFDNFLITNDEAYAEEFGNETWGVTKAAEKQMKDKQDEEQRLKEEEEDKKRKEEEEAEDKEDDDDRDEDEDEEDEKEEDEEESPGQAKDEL
The experiment in a line: confocal microscopy, mitoxantrone-treated CT26 cells, 10 µg/mL monobody, anti-His tag detection. The procedure:
In order to verify the binding force of the purified CRT-monobody to calreticulin, the present inventors observed the degree of binding with a confocal microscope after treating the cancer cells with CRT-monobody. Specifically, CT26 (colon cancer) cells, which are cancer cells, were seeded at 1×10⁵ cells per well in chamber slides (154534PAK, Thermo Fisher Scientific) and cultured overnight in a C02 incubator. Then, each of the cells was treated with mitoxantrone (25 μM), which is an anticancer drug, to induce calreticulin on the surface thereof, treated with gemcitabine (15 μM) as a control group, and cultured for 4 hours, washed with PBS, and reacted with 3% paraformaldehyde for 10 minutes to fix the cells. Then, a block buffer (3% BSA in PBS) was treated for 1 hour to prevent the hard-to-bind antibody, and the CRT-monobody (10 μg/mL) of the present invention was treated in each well and reacted for 1 hour to induce binding to calreticulin. […] In addition, Alexa 555 conjugated WGA-555 (1:2000, 3% BSA in PBS) was treated in order to distinguish cell membranes, DAPI-Glod-antifade was treated, and mounting was performed, and the prepared slides were refrigerated under dark conditions.

In experiment [2] the target is T1, calreticulin (CRT) exposed on the cell …. The experiment in a line: flow cytometry, mitoxantrone- or doxorubicin-treated CT26 and MC38 cells, 5 µg/mL, anti-His tag detection. The source says: (§1) The present inventors allowed cancer cells to react with CRT-monobody-Rluc8, and then measured the binding degree in the number of cells in order to more accurately confirm the binding force of CRT-monobody-Rluc8, which was purified according to an embodiment of the present invention, to calreticulin. To this end, CT26, MC38, Hela, and MDA-MB-231 cells were first cultured, and then the expression of calreticulin on the cell surface was induced by the same method (gemcitabine, doxorubicin, and mitoxantrone) as in Example 5. […] Finally, in order to identify cells bound to CRT-monobody, fluorescence signals of the cells were identified using a flow cytometer (BD Bioscience).
(§2) As a result, when the CT26 (colon cancer), MC38 (colon cancer), Hela (uterine cancer), and MDA-MB-231 (breast cancer) cells were not treated with an anticancer drug and when the cells were treated with gemcitabine, no exposure of calreticulin on the cell membrane was confirmed through fluorescence signals for each cell, and there was no signal change after CRT-monobody treatment of the present invention, so that it was confirmed that the CRT-monobody was not bound to the cells.
On the technique in general: A flow cytometer gives signals particle by particle.

For experiment [3], the target named is T2, calreticulin (CRT) exposed on the cell membrane of drug-treated Hela and MDA-MB-231 cells (UniProt P27797 18-417, limits assumed).
T2 construct: whole, on cells; Target is inferred from cells on which calreticulin exposure was induced by anticancer drugs; cells were fixed with 3% paraformaldehyde; also called calreticulin on the cell surface
T2 sequence (looked up): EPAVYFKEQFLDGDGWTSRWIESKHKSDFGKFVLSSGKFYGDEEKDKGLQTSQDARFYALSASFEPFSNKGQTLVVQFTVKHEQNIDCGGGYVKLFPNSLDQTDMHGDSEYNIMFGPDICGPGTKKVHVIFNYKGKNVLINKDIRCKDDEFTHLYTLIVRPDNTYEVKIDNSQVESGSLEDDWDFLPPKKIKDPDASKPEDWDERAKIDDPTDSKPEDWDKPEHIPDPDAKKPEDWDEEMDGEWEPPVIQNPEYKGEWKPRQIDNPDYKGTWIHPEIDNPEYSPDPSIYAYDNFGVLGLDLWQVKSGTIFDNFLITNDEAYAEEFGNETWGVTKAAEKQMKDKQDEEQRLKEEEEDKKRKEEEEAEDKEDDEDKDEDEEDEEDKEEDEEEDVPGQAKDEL
The experiment in a line: confocal microscopy, mitoxantrone- or doxorubicin-treated Hela and MDA-MB-231 cells, 10 µg/mL, anti-His tag detection. The procedure: In order to verify the binding force of the CRT-monobody-Rluc8 protein to calreticulin, the present inventors observed the degree of binding with a confocal microscope after purifying CRT3-R, CRT4-R, and DGR-R as in Example 3 and treating cancer cells with the CRT-monobody-Rluc8 proteins. Specifically, cancer cells such as CT26 (colon cancer), MC38 (colon cancer), Hela (uterine cancer), and MDA-MB-231 (breast cancer) were seeded at 1×10⁵ cells per well in chamber slides (154534PAK, Thermo Fisher Scientific) and cultured overnight in a CO₂ incubator. Then, each of the cells was treated with doxorubicin (25 μM) and mitoxantrone (25 μM), which are anticancer drugs, to induce calreticulin on the surface thereof, treated with gemcitabine (15 μM) as a control group, and cultured for 4 hours, washed with PBS, and reacted with 3% paraformaldehyde for 10 minutes to fix the cells. Then, a block buffer (3% BSA in PBS) was treated for 1 hour to prevent the hard-to-bind antibody, and the CRT-monobody (10 μg/mL) was treated in each well and reacted for 1 hour to induce binding to calreticulin. […] In addition, Alexa 555 conjugated WGA-555 (1:2000, 3% BSA in PBS) was treated in order to distinguish cell membranes, DAPI-Glod-antifade was treated, and mounting was performed, and the prepared slides were refrigerated under dark conditions.

Experiment [4] deals with T2, calreticulin (CRT) exposed on the cell …. Description: flow cytometry, mitoxantrone- or doxorubicin-treated Hela and MDA-MB-231 cells, 5 µg/mL, anti-His tag detection.
From the text: as §1, §2

Where a chain is given by its changes, count along the chain named.

B1: CRT2 recombinant CRT-monobody (designed binder)
chain: MASVSDVPRDLEVVAATPTSLLISWDAPAVTVRYYRITYGETGGNSPVQEFTVPGSKSTATISGLKPGVDYTITVYAVTKLGFFKRPISINYRTGSHHHHHH
notes: His-tagged protein from E. coli, purified on Ni-NTA; FG loop: Int alpha; BC and DE loops unchanged
Take B1: the binding result in experiment [1] is recorded as “binds”.

B2: CRT4 recombinant CRT-monobody (designed binder)
chain: MASVSDVPRDLEVVAATPTSLLISWGQPMYGQPMYYYRITYGETGGNSPVQEFTVPGSKSTATISGLKPGVDYTITVYAVTKLGFFKRPISINYRTGSHHHHHH
notes: His-tagged protein from E. coli, purified on Ni-NTA
Regarding B2, the binding result in experiment [1] is “binds”.

B3: CRT4-R (recombinant CRT-monobody-Rluc8 of CRT4) (designed binder, not shown: large carriers; small tags and cut ends)
chain: MASVSDVPRDLEVVAATPTSLLISWGQPMYGQPMYYYRITYGETGGNSPVQEFTVPGSKSTATISGLKPGVDYTITVYAVTKLGFFKRPISINYRT
notes: detected with anti-His tag antibody
As for B3, the binding result in experiment [2] and in experiment [3] was “binds” throughout.

B4: CRT3 recombinant CRT-monobody (designed binder)
chain: MASVSDVPRDLEVVAATPTSLLISWKLGFFKRYYRITYGETGGNSPVQEFTVPGSKSTATISGLKPGVDYTITVYAVTGQPMYGQPMYPISINYRTGSHHHHHH
notes: as for B2
Take B4: the binding result in experiment [1] was “binds”.

B5: CRT6 recombinant CRT-monobody (designed binder)
chain: B4 chain with Q80R, P81G, M82D, Y83S, G84P, Q85A, P86S, M87S, Y88K
notes: His-tagged protein from E. coli, purified on Ni-NTA; BC loop: Int alpha; DE and FG loops marked '-'
As for B5, in experiment [1], the binding result was “binds”.

B6: CRT1 recombinant CRT-monobody (designed binder)
chain: MASVSDVPRDLEVVAATPTSLLISWDAPAVTVRYYRITYGETGGNSPVQEFTVPGSKSTATISGLKPGVDYTITVYAVTGQPMYGQPMYPISINYRTGSHHHHHH
notes: His-tagged protein expressed in E. coli BL21(DE3) from pETh plasmid, purified on Ni-NTA; FG loop: Hep 1; BC and DE loops unchanged
Regarding B6, the binding result in experiment [1] is recorded as “binds”.

B7: CRT3-R (recombinant CRT-monobody-Rluc8 of CRT3) (designed binder, not shown: large carriers; small tags and cut ends)
chain: MASVSDVPRDLEVVAATPTSLLISWKLGFFKRYYRITYGETGGNSPVQEFTVPGSKSTATISGLKPGVDYTITVYAVTGQPMYGQPMYPISINYRT
notes: as for B3
Take B7: the binding result in experiment [2] and in experiment [4] was “binds” throughout.

B8: CRT5 recombinant CRT-monobody (designed binder)
chain: MASVSDVPRDLEVVAATPTSLLISWGQPMYGQPMYYYRITYGETGGNSPVQEFTVPGSKSTATISGLKPGVDYTITVYAVTGRGDSPASSKPISINYRTGSHHHHHH
notes: His-tagged protein from E. coli, purified on Ni-NTA; BC loop: Hep 1; DE and FG loops marked '-'
On to B8, for which the binding result in experiment [1] is given as “binds”.
